# Test results from PMC4092071.
# What was measured:
# Assay in all cases: equilibrium inhibitor binding assay (free trypsin by residual activity on a fluorogenic substrate); BPTI variants (0-100 pM) and trypsin (50 pM) in solution, 15 h at 22°C, 0.1 M Tris-HCl (pH 8.0), 1 mM CaCl2, 0.05% Tween 20; free trypsin from cleavage of Z-Gly-Pro-Arg-AMC; free protease against total inhibitor fitted with a quadratic equation
# [1] = target: non-sulfated human cationic trypsin (human)
# [2] = target: sulfated human cationic trypsin (human)
# [3] = target: sulfated human anionic trypsin (human) (UniProt P07478)
# [4] = target: non-sulfated human anionic trypsin (human) (UniProt P07478)
Substance,Kd [1] [pM],Kd [2] [pM],Kd [3] [pM],Kd [4] [pM]
"BPTI variant carrying Arg at P2′ (P1′ Ala, P3′ Asp, P4′ Ile, P19′ Val) (designed binder)",0.9,1,0.4,0.7
"BPTI variant carrying Ile at P2′ (P1′ Ala, P3′ Asp, P4′ Ile, P19′ Val) (designed binder)",0.5,3.2,1.3,0.3

# Further substances by falling Kd [1], results first:
Kd [1] [pM],Kd [2] [pM],Kd [3] [pM],Kd [4] [pM],Substance
3.9,3.3,1.3,1.6,"BPTI variant carrying Lys at P2′ (P1′ Ala, P3′ Asp, P4′ Ile, P19′ Val) (designed binder)"
1.2,13.4,4,1.2,"BPTI variant carrying Leu at P2′ (P1′ Ala, P3′ Asp, P4′ Ile, P19′ Val) (designed binder)"
0.7,7.9,2.2,0.3,"BPTI variant carrying Ala at P2′ (P1′ Ala, P3′ Asp, P4′ Ile, P19′ Val) (designed binder)"
